In the nanobody polyreactivity screen of Harvey et al. (2022):

Experiment: yeast display, Sf9 membrane polyspecificity reagent, FACS + sequencing; frameworks hold sequencing errors
Method in brief: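 After 36–48 hours of galactose induction, yeast (Saccharomyces cerevisiae BJ5465) displaying a synthetic nanobody library were stained at 4 °C for 1 hour with 10% biotinylated, detergent-solubilized Sf9 membrane reagent. Streptavidin microbeads enriched the stained cells before FACS sorting into low and high (top ~1%) gates on anti-HA and streptavidin fluorescence. Each clone's polyreactivity label reflects its gate of origin.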

Sequence | polyreactivity (PSR sort gate)
QVQLVESGGGLVQAGGSLRLSCAASGNIFRIYAMGWYRQAPGKERALVAAITSRGAITNYADSVKGRFTISRDYAKNTVYLQMISLKPEDTAVYYCAASYRRLTGVGADEYWGQGTQVTVSS | high polyreactivity
QVQLVESGGGLVQAGGSLRLSCAASGNIFRKNAMGWYRQAPGKERELVAAITSVGSTNYADSVKGRFTISRDNAKNTVYLQMTSLKPEDTAVYYCDARSQIYYRYRSYGYWGQGTQVTVSS | high polyreactivity
QVQLVESGGGLVQAGGSLRLSCAASGNIFRNNAMGWYRQAPGKERELVAAISRGGSTYYADSVKGRFTISRDNAKNTVYLQMNSLKPEDTAVYYCNKYSSRAYNYWGQGTHVTVSS | high polyreactivity
QVQLVESGGGLVQAGGSLRLSCAASGNIFRSYAMGWYRQAPGKERELVAAISSSDDSTYYADSVKGRFTISRDNAKNTVYLQMNSLKPEDTAVYYCAADGWSWYKGYVGDDMDYWGQGTQVTVSS | low polyreactivity
QVQLVESGGGLVQAGGSLRLSCAASGNIFSAYAMGWYRQAPGTERELVAAISRSVTITYYADSVKGRFTISRDNAKKTDYLQMNSLKPEDTAVYYCAARDYHYPKFGYCGQGTQVTVSS | high polyreactivity
QVQLVESGGGLVQAGGSLRLSCAASGNIFSDNAMGWYRQAPGKERELVATITSSGVSTYYADSVKGRFTISRDNAKNTVYLQMNSLKPEDTAVYYGAVQGFRYHSREYDYWGQGTQVTVSS | low polyreactivity
QVQLVESGGGLVQAGGSLRLSCAASGNIFSDYAMGWYRPAPGKERELVAAISSGGNTNYADSVKGRFTISRDNAKNTVYLQMNSLKPEDTAVYYCAADPGYYVSAYDYWGQGTQVTVSS | low polyreactivity
QVQLVESGGGLVQAGGSLRLSCAASGNIFSFNDVGGSRQAPGNEREWVAAITSSDSTNYADSVKGRFTISRDNAKNTVYLQMNSLKPEDTAVYYCATEILTAARDTVVYQFYLGYYYWGQGTQVTVSS | low polyreactivity
QVQLVESGGGLVQAGGSLRLSCAASGNIFSFYAMGWYRQAPGKERELVAAINWSGGDTYYADSVKGRFTISRDNAKNTVYLQMNSLKPEDTAVYYCAAEYYYQYYPGGYDYWGQGTQVTVSS | high polyreactivity
QVQLVESGGGLVQAGGSLRLSCAASGNIFSRYAMGWYRKAPGKERELVAAISKSGGSTYYADSVKGRFTISRDNAKNTVYLQMNSLKPEDSAVYYCAAYSFFLGYPEFDYWGQGTQVTVSS | high polyreactivity
QVQLVESGGGLVQAGGSLRLSCAASGNIFSSNAMGWYRQAPGKERELVAAITRSGGSTYYADSVKGRFTISRDNSKKTVYLLMNSLKPEDTAFYYCAARHYPRNSWGYDYWGQGSQVTVSS | high polyreactivity
QVQLVESGGGLVQAGGSLRLSCAASGNIFSVYAMGWYRQAPGKERELVAAISSSGGRTYYADSVKGRFTISRENSKNTVYLQMNSLKPEDTAVYYCAARSYTGQFGYWGQGTQVTVSS | high polyreactivity
QVQLVESGGGLVQAGGSLRLSCAASGNIFSYYAMGWYRQAPGKERELVAAIYTGGSTYYADSVKGRFTISRDNAKNTVYLQMNSLKPEDTAVYYCAARGLKLRQDYDYWGQGTQVTVSS | low polyreactivity
QVQLVESGGGLVQAGGSLRLSCAASGNIFTFNAMGWYRQAPGKERELVAAIRSGGSTNYADSVKGRFTISRDNAKNTVYLQMNSLIPEDTAVYYCAAKRYVQGYVYRFGYWGQGTQVTVSS | high polyreactivity
QVQLVESGGGLVQAGGSLRLSCAASGNIFTGNAMGWYRQAPGKERELVAAISSGGGSTYYADSVKGRFTISRDNAKNTVYLQMNSLKPEDTAVYYCAASRVRYSYGYPYYYWGQGTQVTVSS | high polyreactivity
QVQLVESGGGLVQAGGSLRLSCAASGNIFTYYVMGWYRQAPGKESELVAAISRRGGSTYYADSVKGRFTISRDNAKNTVYLQMNSLNPEDTAVYYCADRWYKWSTFSGWSRYDYWGQGTQVTVSS | high polyreactivity
QVQLVESGGGLVQAGGSLRLSCAASGNIFVAYAMGWYRQAPGKERELVAAITYNGGRTYYADSVKGRFTISRDNAKNTVYLQMNSLKPEDTAVYYCAARGYNPYGRKVGYWGQGTQVTVSS | high polyreactivity
QVQLVESGGGLVQAGGSLRLSCAASGNIFVGNAMGWYRQAPGKERELVAAIRRSGGTTYYADSVKGRFTISRDIAKNTVYIQMNSLKPEDTAVYYSAASRPYQGDYWGQGTQVTVSS | low polyreactivity
QVQLVESGGGLVQAGGSLRLSCAASGNIFVNYAMGWYRQAPGKERELVASINYNGGNTYYADSVKGRFTISRDNAKNTVYLQMNSLKPEDTAVYYCAADLPESPESYYDTDDYWGQGTQVTVSS | low polyreactivity
QVQLVESGGGLVQAGGSLRLSCAASGNIFVPSAMGWYRQEPGKERELVAAINVGGSTNYADSLNGRFTNSRDNPKNTVYLQMNSVKPEDTAVNYFGAVWYFLSLWYDYWGHGTQVTVSS | high polyreactivity
QVQLVESGGGLVQAGGSLRLSCAASGNIFYAYAMGWYRQAPGKEREFVAAITKNGGSTYYADSVKGRFTISRDNAKNTVYLQMISLKPEYTAVYYCTAGGVYPRFTFLEQGYEMDYWGQGTQVTVSS | low polyreactivity
QVQLVESGGGLVQAGGSLRLSCAASGNIFYAYDMGWYRQAPGKERELVAAITNGDSTDYADSVKGRFTISRDNAKNTVYLQMNSLKPEDTAVYYCNAYYLPEPWALGGSQYDYWGQGTQVTVSS | low polyreactivity

Sequence | polyreactivity (PSR sort gate)
QVQLVESGGGLVQAGGSLRLSCAASGNIFYINAMGWYRQAPGKERELVAAISSGGRTNYADSVKGRFTISRDNAKNTVYLQMNSLNPEDTEVYYCNADGWYAWRYYAPGGYDYWGQGTQVTVSS | low polyreactivity
QVQLVESGGGLVQAGGSLRLSCAASGNIFYNVMGWYRQAPGKERELVAVISSGDSTYYADSVKGRFTISRDNAKNTVYLQMNSLKPEDTAVYYCNAQWITSAYLLYSYDYWWGYDYWGQGTQVTVSS | high polyreactivity
QVQLVESGGGLVQAGGSLRLSCAASGNIFYRYAMGWYRQAPGKERELVAAISGNSGNTYYADSVKGRFTISRDNAKNSVYLQMNSLKPEDTAVYYCAARPYYSYAGSGGYWGQGTQVTLSS | high polyreactivity
QVQLVESGGGLVQAGGSLRLSCAASGNIFYVYVMGGYRQAPGKERELVASITSGASTYYADSVKGRFTISRDNAKNTVYLQMNSLKPDDTAVYYCAAEALGGAGDYSTLYIYDYWGQGTQVTVSS | low polyreactivity
QVQLVESGGGLVQAGGSLRLSCAASGNIFYYNAMGWYRQAPGKVRELVAAITRSAGSTYYADSVKGRFPISRDNAKNTVYLQMNSLKPEDTAVYYCAATYSDLGYRYYSLGQGTQVTVSS | high polyreactivity
QVQLVESGGGLVQAGGSLRLSCAASGNIIIPYAMGWYRQAPGNEREFVAVMSTRGGSTYYADSVKGRFTISRDNAQNTVYLQMNSLKPEDTAVYYCAARYPYRYDYWGQGTQVTVSS | high polyreactivity
QVQLVESGGGLVQAGGSLRLSCAASGNIITTYAMGWYRQAPGKERELVAAISRSGGRTNYADSVKGRFTISRDNAKNTVYLQMNSLKPEDTAVYYCAADGVPGRAVDYEYWGQGTQVTVSS | high polyreactivity
QVQLVESGGGLVQAGGSLRLSCAASGNILEGYTMGWYRQAPGKERELVATISGRGGSTYYADSVKGRFTISRDYAKNTVYLQMHSLKPEDTAVYYCNALPWALYDSTSIYYYWGQGTQVTVSS | low polyreactivity
QVQLVESGGGLVQAGGSLRLSCAASGNILEGYTMGWYRQAPGQERELVATISGRGGSTYYADSVKGRFTMSRDNAKNTVYLQMHSLKPEDTAVYYCNALPWALYESTSIYYYWGQGTQVTVSS | low polyreactivity
QVQLVESGGGLVQAGGSLRLSCAASGNILGSYAMGWYRQAPWKQRELVAAITWSGGTTYYADSVKGRFTISCDNAKNTVYLQMNSLKPEDTAVYYCAVEIVLTRFDYWGQGTQVTVSS | low polyreactivity
QVQLVESGGGLVQAGGSLRLSCAASGNILGTYAMGWYRQAPGKERELVAAISSSVGSTYYADSVKGRFSISRDNAKKTVYLQMNSLKPEDTAVYYCAARNYQFYEKWGYLYDYWGQGTQVTVSS | low polyreactivity
QVQLVESGGGLVQAGGSLRLSCAASGNILRFNAMGWYRQAPGKERELVAAISRSGGTTYYADSVKGRFTISRDNAKNTVYLQMNSLKPEDTAVYYCAARSRYGESPGYYWGQGTQVTVSS | high polyreactivity
QVQLVESGGGLVQAGGSLRLSCAASGNISLPYTMGWYRQAPGKERELVAAISWDGGRTYYADSVKGRFTISRDNAKNTDYLQMNSLKPEDTAVYYCGARFFLVTLDYWGQGTQVTVSS | low polyreactivity
QVQLVESGGGLVQAGGSLRLSCAASGNMFYRNGMGWYRQAPGKERQFVAAISRRGGSTYYADSVKGRFTISRDNAKNTVYLQMNSLKPEDTAVYYCATRYWPTNKGEYWGQGTQVTVSS | high polyreactivity
QVQLVESGGGLVQAGGSLRLSCAASGNNFSRYSMGCSRPAPGKERELVASISRGGRTNYADSVKGRFTISLDNAKNTVYLQMNSLNPEDTAVYYCALGGNGYWHQSGPYPYNYWGQGTQVTVSS | high polyreactivity
QVQLVESGGGLVQAGGSLRLSCAASGNNLSVYTMGWYRQAPGKERELVATITYSGDRTYADSVKGRFTISRDNAKNTVYLQMNSLKPEDTAVYYCAKRNFGSYIRRGHWGQGTQVTVSS | low polyreactivity
QVQLVESGGGLVQAGGSLRLSCAASGNSFREYTMGWCRQAPGKERELVAGISGSGGRTYYADSVKGRFTISRDNAKNTVFLQMNSLKPEDTAVYYCNDRWYYGIGYNYWGQGTQVTVSS | high polyreactivity
QVQLVESGGGLVQAGGSLRLSCAASGNTFAGNAMGWYRHAPRKERELVAAISRSGVTTRYGDSVKGRFTISRDNAKNTVYLQMNSLKPEDTAVYYCNAVPRLRQTREYWGQGTQVTVSS | high polyreactivity
QVQLVESGGGLVQAGGSLRLSCAASGNTFAGNAMGWYRQAPGKERELVAAISRSGVTTRYADSVKGRFTISRDNAKNTVYLQMNSLKPEDTAVYYCNADPRLRQTRDYWGQGTQVTVSS | high polyreactivity
QVQLVESGGGLVQAGGSLRLSCAASGNTFASNAMGWYRQAPGKERELVATISTSGTTYYADSVKGRFTISRDNAKNTVYLQMNSLKPEDTAVYYCARTFKSRRGSRGYYWGQGTQVTVSS | high polyreactivity
QVQLVESGGGLVQAGGSLRLSCAASGNTFATYAMGWYRQAPGKERELVAGITVDGASTNYADSVKGRFTISRDNAKNTVYLQMNSLKPEDTAVYYCNADYTTQVYDSTWPGDFGYWGQGTQVTVSS | high polyreactivity
